According to paper PMC9651861 (Science Advances, 2022):

Biological target: T1, Trimeric His-Tagged SARS-CoV-2 Spike Glycoprotein, labelled with Alexa Fluor 647 (SARS-CoV-2, original (Wuhan-Hu-1) strain, UniProt P0DTC2, Alexa Fluor 647 (N-hydroxysuccinimide ester), estimated 13:1 dye to protein)
T1 construct: also called full trimeric spike protein; spike protein
Assay: MST
Settings: both partners purified

B1: DesAb-HSA-P2 (VHH)
VHH: EVQLEESGGGLVQPGGSLRLSCAASGFNIKDTYIGWVRQAPGKGEEWVASIYPTSGYTRYADSVKGRFTISADTSKNTAYLQMNSLRAEDTAVYYCAAGSAQAGNAEEAEEEFDYWGQGTLVTVSS
  binding result: no binding (tested: 4 μM)
